{"source": "patent US7119077B1", "about": "“Multimeric forms of members of the steroid/thyroid superfamily of receptors with the ultraspiracle receptor” (The Salk Institute for Biological Studies, priority 1990, dated 2006)", "molecules": {"B1": {"name": "Eip28/29-EcRE (dsDNA)", "DNA 1": "TAAAGGATCTTGACCCCAATGAACTTCTTA", "DNA 2": "TAAGAAGTTCATTGGGGTCAAGATCCTTTA"}, "B2": {"name": "MLV-TRE (DR4) (dsDNA)", "DNA 1": "GGGTCATTTCAGGTCC", "DNA 2": "GGACCTGAAATGACCC"}, "B3": {"name": "15N-EcRE (dsDNA)", "DNA 1": "ATGAAGTGCATTGAACCCGCTCGA", "DNA 2": "TCGAGCGGGTTCAATGCACTTCAT"}, "B4": {"name": "11N-EcRE (dsDNA)", "DNA 1": "ATGCTGTGCATTGAACGTGCTCGA", "DNA 2": "TCGAGCACGTTCAATGCACAGCAT"}, "B5": {"name": "βRARE (DR5) (dsDNA)", "DNA 1": "GGTTCACCGAAAGTTCA", "DNA 2": "TGAACTTTCGGTGAACC"}, "B6": {"name": "hsp27-EcRE (dsDNA)", "DNA 1": "ATTGGACAAGTGCATTGAACCCTTGTCTCT", "DNA 2": "AGAGACAAGGGTTCAATGCACTTGTCCAAT"}}, "key": {"[1]": {"molecular_target": "EcR/usp complex (Drosophila melanogaster, UniProt P20153+P34021)", "details": "cold oligonucleotide competitor, in vitro translated EcR and usp", "procedure": "To generate protein in vitro, suitable plasmids for human (h)RARα, hTRB, hVDR, rat PPAR, Drosophila (d)usp and dEcR were linearized with restriction enzyme 3′ of the termination codon. The linearized templates were used for in vitro transcription and then translation using rabbit reticulocyte lysate according to manufacturer's instruction (Promega). […] Schneider cell extracts were prepared following the procedures in Damm et al., Nature Vol. 339:593–597 (1989) and Umesono et al. (1991), supra. The extraction buffer contained 0.4 M KCl in 20 mM HEPES pH 7.5, 20% glycerol, 2 mM DTT and 1 mM PMSF.\nFor gel mobility shift assay, proteins were incubated with binding buffer, which contained 100 mM KCl, 7.5% glycerol, 20 mM HEPES pH 7.5, 2 mM DTT and 0.1% NP-40, on ice for 20 minutes in the presence of 2 μg of nonspecific competitor poly dI-dC and other oligo competitors. Then approximately 1 ng of ^32P-dCTP probe, which was labelled to specific activity about 1–5×10^8 cpm/μg by fill-in reaction with Klenow fragments, was added to the reaction and incubated at room temperature for 20 minutes. […] The reaction was then loaded into 5% non-denaturing polyacrylamide gel in 0.5×TBE running buffer [1×TBE comprises 0.089 M Tris borate, 0.089 M boric acid and 0.002 M EDTA]. After electrophoresis, the gel was dried for autoradiography.\nThe ability of EcR/usp complex to recognize this EcRE was examined."}, "[2]": {"molecular_target": "T1, EcR/usp heterodimer (Drosophila melanogaster, UniProt P34021;P20153 P34021:1-878,P20153:1-508)", "T1 sequence 1": "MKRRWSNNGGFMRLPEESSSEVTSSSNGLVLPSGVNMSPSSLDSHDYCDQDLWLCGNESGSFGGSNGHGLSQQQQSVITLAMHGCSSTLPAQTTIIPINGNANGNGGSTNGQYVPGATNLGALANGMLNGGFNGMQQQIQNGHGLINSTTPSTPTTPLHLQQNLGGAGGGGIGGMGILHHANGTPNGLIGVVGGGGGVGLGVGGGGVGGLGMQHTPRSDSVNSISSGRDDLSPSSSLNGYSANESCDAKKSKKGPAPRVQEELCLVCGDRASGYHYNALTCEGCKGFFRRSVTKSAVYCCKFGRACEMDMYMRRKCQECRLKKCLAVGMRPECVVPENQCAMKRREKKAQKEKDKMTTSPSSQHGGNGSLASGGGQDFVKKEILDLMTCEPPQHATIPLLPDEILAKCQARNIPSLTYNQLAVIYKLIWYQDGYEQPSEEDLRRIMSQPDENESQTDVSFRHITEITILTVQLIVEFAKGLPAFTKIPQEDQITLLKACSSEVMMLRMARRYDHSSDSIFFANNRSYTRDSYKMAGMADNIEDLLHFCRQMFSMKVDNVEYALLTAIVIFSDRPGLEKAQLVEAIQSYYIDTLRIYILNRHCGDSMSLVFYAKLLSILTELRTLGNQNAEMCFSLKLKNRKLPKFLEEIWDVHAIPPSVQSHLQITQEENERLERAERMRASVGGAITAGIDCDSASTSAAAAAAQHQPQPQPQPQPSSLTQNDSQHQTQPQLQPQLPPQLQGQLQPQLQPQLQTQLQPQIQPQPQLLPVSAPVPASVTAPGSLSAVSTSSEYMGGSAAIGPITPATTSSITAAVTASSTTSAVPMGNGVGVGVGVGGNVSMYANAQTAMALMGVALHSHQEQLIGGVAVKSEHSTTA", "T1 sequence 2": "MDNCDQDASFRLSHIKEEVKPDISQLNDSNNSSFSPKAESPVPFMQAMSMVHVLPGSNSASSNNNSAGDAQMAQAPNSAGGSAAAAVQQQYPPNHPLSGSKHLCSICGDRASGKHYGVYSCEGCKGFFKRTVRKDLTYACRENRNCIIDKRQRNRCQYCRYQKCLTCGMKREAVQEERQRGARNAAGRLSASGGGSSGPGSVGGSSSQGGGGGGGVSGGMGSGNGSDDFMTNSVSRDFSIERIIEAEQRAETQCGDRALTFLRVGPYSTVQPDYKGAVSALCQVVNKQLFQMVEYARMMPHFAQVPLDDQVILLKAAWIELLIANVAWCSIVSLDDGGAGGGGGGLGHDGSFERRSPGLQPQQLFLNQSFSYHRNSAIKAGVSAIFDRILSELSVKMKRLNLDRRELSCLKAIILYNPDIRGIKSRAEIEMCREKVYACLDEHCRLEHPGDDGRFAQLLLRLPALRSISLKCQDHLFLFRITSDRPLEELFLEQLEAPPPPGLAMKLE", "assay": "competition; competes as effectively as hsp27-EcRE"}, "[3]": {"molecular_target": "T2, usp/TRβ heterodimer (Drosophila melanogaster / Homo sapiens, UniProt P20153;P10828 P20153:1-508,P10828:1-461)", "T2 sequence 1": "T1 sequence 2", "T2 sequence 2": "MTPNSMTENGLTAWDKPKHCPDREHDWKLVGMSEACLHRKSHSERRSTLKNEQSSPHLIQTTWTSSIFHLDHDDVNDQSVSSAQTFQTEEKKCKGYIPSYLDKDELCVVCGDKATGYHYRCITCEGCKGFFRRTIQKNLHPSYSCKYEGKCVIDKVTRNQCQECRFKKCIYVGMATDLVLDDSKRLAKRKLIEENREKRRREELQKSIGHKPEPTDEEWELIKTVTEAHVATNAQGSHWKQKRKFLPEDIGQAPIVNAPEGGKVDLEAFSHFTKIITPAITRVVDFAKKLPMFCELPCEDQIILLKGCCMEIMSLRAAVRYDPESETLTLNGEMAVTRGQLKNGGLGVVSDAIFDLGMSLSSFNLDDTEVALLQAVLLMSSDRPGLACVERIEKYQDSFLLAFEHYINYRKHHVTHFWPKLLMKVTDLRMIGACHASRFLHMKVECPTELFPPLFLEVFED", "assay": "EMSA; usp dependent; usp antibody supershift", "details": "label: 32P", "protocol": "(§1) For gel mobility shift assay, proteins were incubated with binding buffer, which contained 100 mM KCl, 7.5% glycerol, 20 mM HEPES pH 7.5, 2 mM DTT and 0.1% NP-40, on ice for 20 minutes in the presence of 2 μg of nonspecific competitor poly dI-dC and other oligo competitors. Then approximately 1 ng of ^32P-dCTP probe, which was labelled to specific activity about 1-5×10^8 cpm/μg by fill-in reaction with Klenow fragments, was added to the reaction and incubated at room temperature for 20 minutes. Antiserum or preimmune serum was added 10 minutes after the probe was added. The reaction was then loaded into 5% non-denaturing polyacrylamide gel in 0.5×TBE running buffer [1×TBE comprises 0.089 M Tris borate, 0.089 M boric acid and 0.002 M EDTA]. After electrophoresis, the gel was dried for autoradiography.\nUsing in vitro translated usp protein, interaction of usp with three mammalian nuclear receptors (TRβ, VDR and PPAR) was tested in gel mobility shift assays with the appropriate response element for each of the three receptors as the probes."}, "[4]": {"molecular_target": "T1, EcR/usp heterodimer", "assay": "competition; effective competitor of hsp27-EcRE binding"}, "[5]": {"molecular_target": "T1, EcR/usp heterodimer", "assay": "competition; does not compete hsp27-EcRE binding"}, "[6]": {"molecular_target": "T3, RARα (human) (Homo sapiens, UniProt P10276 P10276:1-462)", "T3 sequence": "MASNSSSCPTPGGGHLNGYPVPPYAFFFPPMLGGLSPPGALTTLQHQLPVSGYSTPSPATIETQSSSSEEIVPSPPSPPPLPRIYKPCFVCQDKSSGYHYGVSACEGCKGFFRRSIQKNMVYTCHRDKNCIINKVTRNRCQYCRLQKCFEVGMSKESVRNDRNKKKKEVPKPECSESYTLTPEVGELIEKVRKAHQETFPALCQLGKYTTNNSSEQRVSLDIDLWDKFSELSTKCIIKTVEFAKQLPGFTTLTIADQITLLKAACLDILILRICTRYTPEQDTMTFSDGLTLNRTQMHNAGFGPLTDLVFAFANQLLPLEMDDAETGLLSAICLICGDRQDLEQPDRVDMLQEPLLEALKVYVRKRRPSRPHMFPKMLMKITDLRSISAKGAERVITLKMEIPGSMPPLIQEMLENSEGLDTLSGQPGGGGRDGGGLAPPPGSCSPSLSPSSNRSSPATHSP", "assay": "EMSA; RARα alone", "details": "label: 32P", "protocol": "as §1\nIn gel mobility shift assays using a ^32P-labelled natural RAR response element—βRARE [see SEQ ID NO:15, see also de The et al., in Nature Vol. 343:177–180 (1990); and Sucov et al., in Proc. Natl. Acad. Sci. USA Vol. 87:5392–5398 (1990)] as the probe, in vitro translated RARα was incubated with probe under binding conditions either alone or with 2 µg of S2 extracts or embryo extracts.\nNeither in vitro translated usp alone, nor RARα alone, bound to a βRARE probe. […] This complex comigrated with the complex detected in the RAR and cell extract mixing experiments. […]"}, "[7]": {"molecular_target": "T4, usp/RARα heterodimer (Drosophila melanogaster / Homo sapiens, UniProt P20153;P10276 P20153:1-508,P10276:1-462)", "T4 sequence 1": "T1 sequence 2", "T4 sequence 2": "T3 sequence", "assay": "EMSA; prominent complex; affected by usp and RARα antibodies", "details": "label: 32P", "protocol": "as §1\n(§2) Neither in vitro translated usp alone, nor RARα alone, bound to a βRARE probe. However, when the two proteins were incubated together, a prominent retarded complex appeared. This complex comigrated with the complex detected in the RAR and cell extract mixing experiments. […] Either the affinity purified usp antibody, or the RARα, specifically affected the protein/ DNA complex, while preimmune sera had no effect. […]"}, "[8]": {"molecular_target": "T5, ultraspiracle (usp) (Drosophila melanogaster, UniProt P20153 SEQ:1-513)", "T5 sequence": "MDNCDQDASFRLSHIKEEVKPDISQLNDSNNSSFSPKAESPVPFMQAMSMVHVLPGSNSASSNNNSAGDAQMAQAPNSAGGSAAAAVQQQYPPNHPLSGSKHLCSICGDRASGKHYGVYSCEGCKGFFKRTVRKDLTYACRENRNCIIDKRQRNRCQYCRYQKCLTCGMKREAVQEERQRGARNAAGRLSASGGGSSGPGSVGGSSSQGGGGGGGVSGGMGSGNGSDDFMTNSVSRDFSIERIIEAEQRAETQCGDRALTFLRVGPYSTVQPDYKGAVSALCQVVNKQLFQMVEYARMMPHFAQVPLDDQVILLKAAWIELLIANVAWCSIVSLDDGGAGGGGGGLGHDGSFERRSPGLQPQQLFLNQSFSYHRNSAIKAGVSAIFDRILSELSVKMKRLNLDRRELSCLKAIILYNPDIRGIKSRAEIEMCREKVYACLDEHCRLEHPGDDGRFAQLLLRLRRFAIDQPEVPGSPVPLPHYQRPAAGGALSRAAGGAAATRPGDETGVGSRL", "assay": "EMSA; usp alone", "details": "label: 32P", "protocol": "as §1, §2"}, "[9]": {"molecular_target": "T5, ultraspiracle (usp)", "assay": "EMSA; usp alone", "details": "label: 32P", "protocol": "as §1\n(§3) The EcR and usp interaction was also tested under more defined conditions. In vitro translated EcR and usp were prepared and their interaction was assayed by gel mobility shift assays. […] To test whether usp can complement EcR DNA binding, as it does with mammalian receptors, both usp and EcR were co-incubated in the reaction. In the presence of both receptors, a novel high affinity DNA binding complex appeared. […] This complex is proposed to be a heterodimeric species, which is consistent with the observation of other usp heterodimers.", "remark": "listed apart in the source"}, "[10]": {"molecular_target": "T6, Ecdysone receptor (EcR) (Drosophila melanogaster, UniProt P34021 P34021:1-878)", "T6 sequence": "T1 sequence 1", "assay": "EMSA; EcR alone", "details": "label: 32P", "protocol": "as §1, §3"}, "[11]": {"molecular_target": "T1, EcR/usp heterodimer", "assay": "EMSA; high affinity complex; usp antibody supershift", "details": "label: 32P", "protocol": "as §1, §3"}}, "data": [{"molecule": "Eip28/29-EcRE: EcRE derived from the Drosophila Eip28/29 gene, composite element with direct repeat and degenerated palindromic motif (DNA TAAAGGATCTTGACCCCAATGAACTTCTTA; further chemistry not given here)", "values": [{"measurement": "competition of EcR/usp binding to hsp27-EcRE", "setting": "[1]", "result": "can effectively compete"}]}, {"molecule": "15N-EcRE: back mutation of hsp27-EcRE which regenerated the palindrome motif (DNA ATGAAGTGCATTGAACCCGCTCGA; further chemistry not given here)", "values": [{"measurement": "competition of EcR/usp binding to hsp27-EcRE", "setting": "[1]", "result": "effective competition"}]}, {"molecule": "11N-EcRE: mutant hsp27-EcRE, two nucleotides at the ends of the palindrome and the flanking sequence changed (DNA ATGCTGTGCATTGAACGTGCTCGA; further chemistry not given here)", "values": [{"measurement": "competition of EcR/usp binding to hsp27-EcRE", "setting": "[1]", "result": "did not compete"}]}, {"molecule": "B1", "values": [{"measurement": "binding result", "setting": "[2]", "result": "binds"}]}, {"molecule": "B2", "values": [{"measurement": "binding result", "setting": "[3]", "result": "binds"}]}, {"molecule": "B3", "values": [{"measurement": "binding result", "setting": "[4]", "result": "binds"}]}, {"molecule": "B4", "values": [{"measurement": "binding result", "setting": "[5]", "result": "no binding"}]}, {"molecule": "B5", "values": [{"measurement": "binding result", "setting": "[6]", "result": "no binding"}, {"measurement": "binding result", "setting": "[7]", "result": "binds"}, {"measurement": "binding result", "setting": "[8]", "result": "no binding"}]}, {"molecule": "B6", "values": [{"measurement": "binding result", "setting": "[9]", "result": "no binding"}, {"measurement": "binding result", "setting": "[10]", "result": "no binding"}, {"measurement": "binding result", "setting": "[11]", "result": "binds"}]}]}
